# Measurements as given in IntAct's records for PubMed 22396535.
# B1: Paired immunoglobulin-like type 2 receptor alpha (Homo sapiens), Q9UKJ1 (parent)
# chain: MGRPLLLPLLPLLLPPAFLQPSGSTGSGPSYLYGVTQPKHLSASMGGSVEIPFSFYYPWELATAPDVRISWRRGHFHRQSFYSTRPPSIHKDYVNRLFLNWTEGQKSGFLRISNLQKQDQSVYFCRVELDTRSSGRQQWQSIEGTKLSITQAVTTTTQRPSSMTTTWRLSSTTTTTGLRVTQGKRRSDSWHISLETAVGVAVAVTVLGIMILGLICLLRWRRRKGQQRTKATTPAREPFQNTEEPYENIRNEGQNTDPKLNPKDDGIVYASLALSSSTSPRAPPSHRPLKSPQNETLYSVLKA
# partner: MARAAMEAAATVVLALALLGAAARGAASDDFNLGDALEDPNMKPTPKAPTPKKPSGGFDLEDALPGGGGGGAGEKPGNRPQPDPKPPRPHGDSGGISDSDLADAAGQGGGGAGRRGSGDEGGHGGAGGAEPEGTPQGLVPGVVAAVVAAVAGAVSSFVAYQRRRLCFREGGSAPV
# B2: Paired immunoglobulin-like type 2 receptor alpha (Homo sapiens), Q9UKJ1 (parent)
# chain: B1 chain
# partner: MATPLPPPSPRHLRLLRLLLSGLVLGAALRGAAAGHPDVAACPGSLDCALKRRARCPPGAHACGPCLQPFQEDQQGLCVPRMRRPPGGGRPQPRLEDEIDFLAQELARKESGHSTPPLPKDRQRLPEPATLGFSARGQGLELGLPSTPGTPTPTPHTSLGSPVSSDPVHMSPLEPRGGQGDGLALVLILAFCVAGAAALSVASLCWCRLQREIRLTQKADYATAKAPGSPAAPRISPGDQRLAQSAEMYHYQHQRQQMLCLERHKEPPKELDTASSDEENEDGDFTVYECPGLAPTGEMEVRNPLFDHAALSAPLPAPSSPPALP
# B3: Paired immunoglobulin-like type 2 receptor alpha (Homo sapiens), Q9UKJ1 (parent)
# chain: B1 chain
# Variants of: B1
# Conditions: with cd99_mouse Cd99, Q8VCN6
row,effect of a mutation on the interaction,Variant
1,disrupting interaction strength,R126A

# Variants of: B2
# Conditions: with npdc1_human NPDC1, Q9NQX5
row,effect of a mutation on the interaction,Variant
1,disrupting interaction strength,R126A

# Variants of: B3
# Conditions: with col12_human COLEC12, Q5KU26
# col12_human COLEC12, Q5KU26, sequence (Q5KU26 whole entry): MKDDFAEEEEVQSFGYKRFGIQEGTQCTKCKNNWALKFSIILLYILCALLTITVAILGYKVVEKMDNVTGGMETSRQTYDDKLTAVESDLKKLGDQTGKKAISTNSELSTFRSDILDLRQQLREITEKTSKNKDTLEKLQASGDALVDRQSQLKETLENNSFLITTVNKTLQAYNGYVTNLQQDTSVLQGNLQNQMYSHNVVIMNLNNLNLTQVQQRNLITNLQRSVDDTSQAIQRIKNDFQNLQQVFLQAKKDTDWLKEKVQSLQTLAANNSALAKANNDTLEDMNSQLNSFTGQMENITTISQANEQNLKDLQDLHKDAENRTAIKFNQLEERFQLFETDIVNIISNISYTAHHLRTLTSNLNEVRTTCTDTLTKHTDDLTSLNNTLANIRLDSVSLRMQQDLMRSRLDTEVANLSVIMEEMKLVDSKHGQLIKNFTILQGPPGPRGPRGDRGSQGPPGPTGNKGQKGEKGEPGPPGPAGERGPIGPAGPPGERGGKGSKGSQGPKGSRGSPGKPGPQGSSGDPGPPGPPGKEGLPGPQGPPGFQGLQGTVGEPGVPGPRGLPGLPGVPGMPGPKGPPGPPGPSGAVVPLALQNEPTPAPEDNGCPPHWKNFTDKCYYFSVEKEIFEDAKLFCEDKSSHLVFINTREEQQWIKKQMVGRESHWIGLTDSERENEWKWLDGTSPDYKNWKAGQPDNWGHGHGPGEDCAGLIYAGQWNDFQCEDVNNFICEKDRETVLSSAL
row,effect of a mutation on the interaction,Variant
1,disrupting interaction strength,R126A
